Source: US12018068B2, “Anti-O1 antibodies and uses thereof” (priority 2016, dated 2024)

B1: KPB202: human anti-O1 antigen antibody from tonsillar B cells, VH SEQ ID NO:39, VL SEQ ID NO:40, IgG1 (antibody, V domains shown)
VH: EVQLVESGGGLVQPGGSLSLSCAASGFTFSNFWVGWGRQAPGKGLEWVANINPDGSEKYYVDSVKGRVTISRDNAKNSLSLQMNSLRVEDAAVYYCARLGPFHPDCWGQGTLVTVSS
VL: DVVMTQSPLSLPVTLGQPASISCRSSQSLVHSDGNTYLNWFQQRPGQSPRRLIYEVSNRDSGVPDRFSGSGSGTDFTLKISRVEAEDIGVYYCMQGTHWPWTFGQGTKVEIK
modifications: KPB202 VH Amino Acid Sequence; KPB202 VL Amino Acid Sequence
B2: KPA27: human anti-O1 antigen antibody, VH SEQ ID NO:21, VL SEQ ID NO:22, isolated as IgG2 (antibody, V domains shown)
VH: QVQLVQSGAEVKKPGASVKVSCKASENTFNDFYMHWVRQAPGQGLEWMGWIHPDGVVTNYAQKFQGRVTMTRDTSINTVYMELNGLISDDTAVYYCMRDGPGSEGSWFDYWGQGTLVTVSS
VL: DIQMTQSPSTLSASVGDRVTITCRASQPVSNRLAWYQQKPGRAPTLLIYKASTLQSGVPLRFSGSGSGTEFTLTISSLQSDDFATYYCQQSQTFGQGTKVEIK
modifications: KPA27 VH Amino Acid Sequence; KPA27 VL Amino Acid Sequence
B3: KPJ4: human anti-O1 antigen antibody from tonsillar B cells, VH SEQ ID NO:30, VL SEQ ID NO:31, IgG2 (antibody, V domains shown)
VH: QVQLQQSGPGLVRPSQTLSLTCAISGDSVSSNTAAWNWIRQSPSRGLEWLGRTYYRSEWYNDYAVSVKSRITINPDTSKNQFSLQLNSVTPEDTAVYYCARISWNDLPAWGQGTLVTVSS
VL: DIVMTQSPDSLAVSLGERATINCKSSQSILYSSHNKNYLAWYQQKPGQPPKVLIYWASTRESGVPDRFSGSGSGTDFTLTISNLQAEDVAVYYCQQYCNIPYTFGQGTKLEIK
modifications: IgG2 constant regions; KBJ4 VH Amino Acid Sequence; KPJ4 VL Amino Acid Sequence

Experiments:
[1] = system: K. pneumoniae capsule mutant strain 43816ΔcpsB Lux; test: bioluminescent opsonophagocytic killing (OPK) assay with HL-60 cells; format: cell-based, Klebsiella pneumoniae; details: for induction of OPK killing: FIG. 1C
Description: (§1) PBMC donors were ranked based on their binding titers as well as their SBA and OPK activity. OPK assays were performed as described with modifications (Wang, Q. et al. Target-Agnostic Identification of Functional Monoclonal Antibodies Against Klebsiella pneumoniae Multimeric MrkA Fimbrial Subunit J Infect Dis. 2016 Jun. 1; 213(11):1800-8). Briefly, log phase cultures of luminescent K. pneumoniae capsule mutant strain 43816ΔcpsB (43816ΔcpsB Lux) were diluted to ˜2×10^6 cells/ml. Bacteria, diluted baby rabbit serum providing complement (Cedarlane, pre-absorbed with Kp43816ΔcpsB, 1:10), dimethylformamide (DMF) differentiated HL-60 cells, and sera were mixed in 384-well plates and incubated at 37° C. for two hours with shaking (250 rpm). The relative light units (RLUs) were then measured using an Envision Multilabel plate reader (Perkin Elmer). The percentage of killing was determined by comparing RLU derived from assays with no antibodies to RLU obtained from human sera.
as §1, with “OPK” for “PBMC donors were ranked based on their binding titers as well as their SBA and OPK activity. OPK”, “al., J. Infect.” for “al. Target-Agnostic Identification of Functional Monoclonal Antibodies Against Klebsiella pneumoniae Multimeric MrkA Fimbrial Subunit J Infect”, “213:1800-8 (2016)).” for “2016 Jun. 1; 213(11):1800-8).”, “antibodies” for “sera”, “anti-K. pneumoniae mAbs and a negative control mAb.” for “human sera.”

purified O1 LPS = test: ELISA binding to purified O1 LPS; parameters: species or system Klebsiella pneumoniae; details: FIG. 1A
Description: Binding to purified O1 LPS was assayed by standard ELISA method. Briefly, ELISA plates (Nunc MaxiSorp) were coated with purified O1 LPS in PBS, pH 7.2, overnight at 4 C, followed by blocking the plates with PBS supplemented with 1% BSA (PBS-B). The coated plates were incubated with series dilutions of monoclonal antibodies for 1 h at room temperature. The plates were then washed with PBS containing 0.1% Tween-20 (PBS-T) before HRP-conjugated anti-human secondary antibodies were added for 1 hour followed by TMB TMB (3,3′,5,5′-Tetrametheylbenzidine) substrates. The absorbance of 450 nm was measured by microplate reader (Molecular Devices) and the data were plotted with Prism software.

[2] = system: K. pneumoniae strain Kp4211 lux; test: high throughput serum bactericidal assay (SBA), complement-dependent killing; format: cell-based, Klebsiella pneumoniae; details: for complement-dependent killing in SBA: FIG. 1B; for complement-dependent killing (SBA) in primary screening: strain Kp4211 (LPS-O1)
Description: Peripheral blood mononuclear cells (PBMC) and sera were separated from buffy coats from healthy blood donors (N=567). PMBC were stored in liquid nitrogen whereas the plasma was stored at 4° C. To identify Klebsiella pneumoniae immune donors, all the available sera were tested for binding to Kp43816 and Kp4211 (LPS-O1 serotype), as well as to the unencapsulated mutant strain Kp43816ΔcpsB and the double mutant Kp43816ΔcpsBΔwaaL. […] In addition, all available sera were tested for their bactericidal activity in the presence of complement using a high-throughput serum bactericidal assay (SBA assay). Overnight cultures of luminescent K. pneumoniae strain 4211 (lux) were diluted in Muller Hinton II media to make OD600 to be 0.003. Equal volume of sera, 4211 lux, and baby rabbit serum (Cedarlane) were mixed in 384 well plates and incubated at 37° C. for two hours with shaking (250 rpm). The relative light units (RLUs) were then measured using an Envision Multilabel plate reader (Perkin Elmer). The percentage of killing was determined by comparing RLU derived from assays with no antibodies to RLU obtained from human sera.
The susceptibility of the K. pneumoniae strain Kp4211 lux to serum and antibody dependent killing was measured by high throughput serum bactericidal assay (SBA). Overnight cultures of luminescent K. pneumoniae strain 4211 (lux) were diluted in Muller Hinton II media to make OD600 to be 0.003. Equal volume of antibodies, 4211 lux, and baby rabbit serum (Cedarlane) were mixed in 384 well plates and incubated at 37° C. for two hours with shaking (250 rpm). The relative light units (RLUs) were then measured using an Envision Multilabel plate reader (Perkin Elmer). The percentage of killing was determined by comparing RLU derived from assays with no antibodies to RLU obtained from anti-K. pneumoniae mAbs and a negative control mAb.

[3] = system: Klebsiella pneumoniae of the LPS-O1 serotype; test: primary screening, binding to whole bacteria
Description: KPA27 and KPE33 were isolated from the peripheral blood of two different immune donors: #487 and #262, respectively. […] KPA27 and KPE33 were isolated from immune donors as IgG2 antibodies.
KPB202 and KPJ4 were isolated from tonsillar B cells of two different donors: T6 (KPB202) and T8 (KPJ4). […] KPB202 and KPJ4 were isolated from donors as IgG1 and IgG2 antibodies, respectively.

LPS (O1) = test: LPS neutralization assay, RAW264.7-lux NF-κB luciferase reporter; format: cell-based, murine
Description: LPS neutralization was assayed by utilizing a murine RAW264.7 macrophage cell line carrying a firefly luciferase reporter gene under the control of an NF-κB-responsive promoter (RAW264.7-lux). Serially diluted antibody stocks were mixed with LPS in a 1:1 ratio and incubated at 4° C. for 1 hr. Antibody/LPS mixture was then diluted 1:10 into assay plates containing pre-seeded RAW264.7-lux cells (5e3 cells/well), which were then placed at 37° C./5% CO2 for 2.5 hours. Following incubations, Steady Glo (Promega) was then added to each well and incubated for another 20 min protected from light. The relative light units (RLUs) were then measured using an Envision Multilabel plate reader (Perkin Elmer). The percentage of inhibition was determined by comparing RLU derived from assays with no antibodies to RLU obtained from anti-K. pneumoniae mAbs and a negative control mAb. Activation of TLR4 receptors by bacterial LPS leads to downstream activation of the NF-κB transcriptional regulator. A decrease in induction of NF-κB-responsive luciferase activity was used to quantify LPS neutralization activity by LPS mAbs.

Molecule | D Capsule OPK IC50 [1] | induction of OPK killing [1] | binding to purified O1 LPS (purified O1 LPS) | SBA Kp4211lux IC50 [2] | complement-dependent killing in SBA [2] | complement-dependent killing (SBA) in primary screening [2] | binding to bacteria in primary screening [3] | LPS Neut (O1) IC50 (LPS (O1)) | LPS neutralization (LPS (O1))
B1 | 0.0009 µg/mL | induced OPK killing | bound to purified O1 LPS | 0.0006 µg/mL | kill K. pneumoniae via complement-dependent killing | mediate complement-dependent killing | bind to Klebsiella pneumoniae of the LPS-O1 serotype | 0.038 µg/mL | neutralized LPS
B2 | 0.67 µg/mL | induced OPK killing | bound to purified O1 LPS | 1.625 µg/mL | kill K. pneumoniae via complement-dependent killing | mediate complement-dependent killing | bind to Klebsiella pneumoniae of the LPS-O1 serotype |  | did not
B3 | 0.011 µg/mL | induced OPK killing | bound to purified O1 LPS | 0.11 µg/mL | kill K. pneumoniae via complement-dependent killing | mediate complement-dependent killing | bind to Klebsiella pneumoniae of the LPS-O1 serotype |  | did not
